Biological target: lmbl3_human L3MBTL3 (UniProt Q96JM7)
Sequence (Q96JM7 whole entry): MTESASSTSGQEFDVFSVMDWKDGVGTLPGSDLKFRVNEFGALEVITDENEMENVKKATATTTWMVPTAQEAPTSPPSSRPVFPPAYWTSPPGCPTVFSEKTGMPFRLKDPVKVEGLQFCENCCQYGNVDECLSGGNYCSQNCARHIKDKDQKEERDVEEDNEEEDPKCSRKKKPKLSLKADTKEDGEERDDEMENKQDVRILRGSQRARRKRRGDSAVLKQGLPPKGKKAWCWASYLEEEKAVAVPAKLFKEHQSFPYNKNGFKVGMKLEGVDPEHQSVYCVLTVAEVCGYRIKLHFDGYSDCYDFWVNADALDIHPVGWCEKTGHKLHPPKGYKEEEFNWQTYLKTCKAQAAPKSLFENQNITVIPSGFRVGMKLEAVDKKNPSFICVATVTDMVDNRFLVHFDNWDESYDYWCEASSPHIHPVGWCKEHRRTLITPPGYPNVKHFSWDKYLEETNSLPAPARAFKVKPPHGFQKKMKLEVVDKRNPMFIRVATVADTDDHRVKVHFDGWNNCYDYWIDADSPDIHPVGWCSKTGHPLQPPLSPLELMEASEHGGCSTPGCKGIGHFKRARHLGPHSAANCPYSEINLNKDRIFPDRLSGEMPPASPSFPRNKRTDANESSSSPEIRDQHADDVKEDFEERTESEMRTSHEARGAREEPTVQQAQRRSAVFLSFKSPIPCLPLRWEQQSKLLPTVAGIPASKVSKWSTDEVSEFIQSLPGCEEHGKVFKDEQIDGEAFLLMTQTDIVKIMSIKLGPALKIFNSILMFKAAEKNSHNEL

Chain of Transcription factor E2F1 (Homo sapiens), Q01094 K185R (Q01094 whole entry K185R): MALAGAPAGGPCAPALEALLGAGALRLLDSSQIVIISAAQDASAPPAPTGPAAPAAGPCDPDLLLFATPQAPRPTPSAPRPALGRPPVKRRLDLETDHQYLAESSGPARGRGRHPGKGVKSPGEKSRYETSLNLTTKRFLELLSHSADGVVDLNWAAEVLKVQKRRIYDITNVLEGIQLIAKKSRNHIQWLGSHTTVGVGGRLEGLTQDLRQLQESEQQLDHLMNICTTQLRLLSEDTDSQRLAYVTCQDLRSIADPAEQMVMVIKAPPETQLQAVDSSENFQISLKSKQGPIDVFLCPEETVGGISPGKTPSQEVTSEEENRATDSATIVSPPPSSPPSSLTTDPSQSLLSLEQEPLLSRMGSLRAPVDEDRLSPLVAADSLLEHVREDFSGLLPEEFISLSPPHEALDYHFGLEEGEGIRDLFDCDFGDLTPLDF

- effect of a mutation on the interaction: disrupting interaction strength
Substance: Transcription factor E2F1 (Homo sapiens), Q01094 K185R

Source: IntAct's records for PubMed 29691401
